System: Escherichia coli TOP10
Assay: shrunken log2 fold change of peptide-encoding DNA abundance (4.5 h post-induction vs induction); higher = less antimicrobial activity (less host growth inhibition)
Settings: time post-induction: 4.5 h; library: site-saturation at positions 5, 18, 19, 20
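Further: peptides expressed intracellularly from a pBAD plasmid library in pooled LB shake-flask culture, induced with 0.3% L-arabinose, DNA abundance read by NGS, three biological replicates, DESeq2 with apeglm shrinkage.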

Row | Sequence | shrunken log2 fold change
1 | RRIRMRPPRLPRPRPRPLCLPRP | -0.0538
2 | RRIRYRPPRLPRPRPRPRWMPRP | -0.208
3 | RRIRYRPPRLPRPRPRPRMPPRP | -0.354
4 | RRIRMRPPRLPRPRPRPMPWPRP | 0.169
5 | RRIRPRPPRLPRPRPRPAHNPRP | -0.114
6 | RRIRGRPPRLPRPRPRPLGTPRP | 0.736
7 | RRIRQRPPRLPRPRPRPPIEPRP | -0.09
8 | RRIRSRPPRLPRPRPRPVVIPRP | -0.429
9 | RRIRIRPPRLPRPRPRPNCLPRP | -0.602
10 | RRIRCRPPRLPRPRPRPAYNPRP | -0.619
11 | RRIRSRPPRLPRPRPRPTCFPRP | 0.284
12 | RRIRYRPPRLPRPRPRPNPKPRP | -0.0294
13 | RRIRVRPPRLPRPRPRPNVRPRP | -0.0431
14 | RRIRSRPPRLPRPRPRPVWCPRP | 0.143
15 | RRIRKRPPRLPRPRPRPFLEPRP | 0.194
16 | RRIRFRPPRLPRPRPRPYPWPRP | -0.9
17 | RRIRPRPPRLPRPRPRPIMEPRP | -0.159
18 | RRIRYRPPRLPRPRPRPVVNPRP | -0.683
19 | RRIRCRPPRLPRPRPRPMSIPRP | -0.484
20 | RRIRKRPPRLPRPRPRPSFQPRP | 0.0564
21 | RRIRERPPRLPRPRPRPTWCPRP | 3.3
22 | RRIRFRPPRLPRPRPRPEIQPRP | 0.0158
23 | RRIRMRPPRLPRPRPRPYAFPRP | -0.0624
24 | RRIRKRPPRLPRPRPRPQFQPRP | -0.0733
25 | RRIRMRPPRLPRPRPRPSQYPRP | -0.191

Row | Sequence | shrunken log2 fold change
26 | RRIRWRPPRLPRPRPRPSWNPRP | -0.212
27 | RRIRNRPPRLPRPRPRPDESPRP | -0.109
28 | RRIRPRPPRLPRPRPRPPVQPRP | 0.341
29 | RRIRSRPPRLPRPRPRPDFRPRP | -0.0983
30 | RRIRERPPRLPRPRPRPWGTPRP | -0.121
31 | RRIRIRPPRLPRPRPRPDRHPRP | -0.504
32 | RRIRIRPPRLPRPRPRPDVTPRP | -0.0322
33 | RRIRHRPPRLPRPRPRPTHVPRP | 0.0105
34 | RRIRIRPPRLPRPRPRPKGRPRP | 0.182
35 | RRIRIRPPRLPRPRPRPINSPRP | -0.619
36 | RRIRQRPPRLPRPRPRPMYWPRP | 0.0971
37 | RRIRIRPPRLPRPRPRPCMPPRP | -0.908
38 | RRIRNRPPRLPRPRPRPYVIPRP | -0.177
39 | RRIRVRPPRLPRPRPRPMLHPRP | -0.192
40 | RRIRQRPPRLPRPRPRPDSQPRP | 0.0234
41 | RRIRTRPPRLPRPRPRPYYFPRP | -0.783
42 | RRIRMRPPRLPRPRPRPDKDPRP | 1.24
43 | RRIRHRPPRLPRPRPRPPFCPRP | 0.00537
44 | RRIRFRPPRLPRPRPRPFECPRP | -0.0767
45 | RRIRFRPPRLPRPRPRPMLHPRP | -0.376
46 | RRIRDRPPRLPRPRPRPASEPRP | 0.453
47 | RRIRIRPPRLPRPRPRPDVNPRP | 0.0617
48 | RRIRNRPPRLPRPRPRPGITPRP | -0.326
49 | RRIRDRPPRLPRPRPRPWVPPRP | 0.164
50 | RRIRPRPPRLPRPRPRPQKMPRP | -0.201

Row | Sequence | shrunken log2 fold change
51 | RRIRHRPPRLPRPRPRPRYMPRP | -0.559
52 | RRIRPRPPRLPRPRPRPKIPPRP | -0.408
53 | RRIRIRPPRLPRPRPRPPLPPRP | 0.796
54 | RRIRERPPRLPRPRPRPQFIPRP | -0.014
55 | RRIRWRPPRLPRPRPRPDHIPRP | -0.0546
56 | RRIRWRPPRLPRPRPRPVMLPRP | -0.0383
57 | RRIRPRPPRLPRPRPRPKNEPRP | -0.119
58 | RRIRDRPPRLPRPRPRPNNAPRP | -0.204
59 | RRIRMRPPRLPRPRPRPPNCPRP | 0.0335
60 | RRIRYRPPRLPRPRPRPWCGPRP | -0.974
61 | RRIRLRPPRLPRPRPRPMSVPRP | -0.18
62 | RRIRERPPRLPRPRPRPYAPPRP | -0.624
63 | RRIRHRPPRLPRPRPRPTKRPRP | -0.0644
64 | RRIRTRPPRLPRPRPRPEWVPRP | 0.457
65 | RRIRYRPPRLPRPRPRPKMWPRP | -0.113
66 | RRIRWRPPRLPRPRPRPQMHPRP | 0.0794
67 | RRIRDRPPRLPRPRPRPKMYPRP | 0.0269
68 | RRIRMRPPRLPRPRPRPQTNPRP | 0.462
69 | RRIRGRPPRLPRPRPRPGGVPRP | 1.06
70 | RRIRGRPPRLPRPRPRPSAMPRP | 0.989
71 | RRIRHRPPRLPRPRPRPIDYPRP | -0.017
72 | RRIRDRPPRLPRPRPRPLQAPRP | 0.365
73 | RRIRMRPPRLPRPRPRPHLSPRP | -0.0805
74 | RRIRKRPPRLPRPRPRPWAFPRP | -0.016
75 | RRIRCRPPRLPRPRPRPFDIPRP | -1.4

Row | Sequence | shrunken log2 fold change
76 | RRIRERPPRLPRPRPRPVIPPRP | -0.23
77 | RRIRSRPPRLPRPRPRPRQQPRP | 0.0352
78 | RRIRTRPPRLPRPRPRPIQSPRP | -0.0351
79 | RRIRERPPRLPRPRPRPYPDPRP | -1.61
80 | RRIRFRPPRLPRPRPRPERCPRP | 0.104
81 | RRIRYRPPRLPRPRPRPHTKPRP | -0.149
82 | RRIRNRPPRLPRPRPRPGHMPRP | -0.147
83 | RRIRSRPPRLPRPRPRPIDGPRP | 0.0145
84 | RRIRHRPPRLPRPRPRPPWSPRP | 0.093
85 | RRIRNRPPRLPRPRPRPWLNPRP | -0.00264
86 | RRIRGRPPRLPRPRPRPELGPRP | 1.45
87 | RRIRSRPPRLPRPRPRPLKPPRP | 0.0304
88 | RRIRVRPPRLPRPRPRPKRFPRP | -0.0543
89 | RRIRVRPPRLPRPRPRPAKQPRP | -0.0993
90 | RRIRFRPPRLPRPRPRPQKEPRP | 0.172
91 | RRIRKRPPRLPRPRPRPMNIPRP | -0.213
92 | RRIRKRPPRLPRPRPRPWSMPRP | -0.0905
93 | RRIRDRPPRLPRPRPRPIKEPRP | -0.015
94 | RRIRCRPPRLPRPRPRPEGVPRP | 2.48
95 | RRIRMRPPRLPRPRPRPRQRPRP | 1.79
96 | RRIRERPPRLPRPRPRPWVCPRP | 0.0297
97 | RRIRFRPPRLPRPRPRPKYQPRP | -0.534
98 | RRIRGRPPRLPRPRPRPSPKPRP | 0.619
99 | RRIRVRPPRLPRPRPRPSNRPRP | -0.147
100 | RRIRGRPPRLPRPRPRPCFMPRP | 0.0852

Row | Sequence | shrunken log2 fold change
101 | RRIRDRPPRLPRPRPRPGNWPRP | -0.0358
102 | RRIRVRPPRLPRPRPRPSGIPRP | -0.931
103 | RRIRLRPPRLPRPRPRPWDHPRP | -1.04
104 | RRIRMRPPRLPRPRPRPVDIPRP | -0.0631
105 | RRIRNRPPRLPRPRPRPNTQPRP | -0.148
106 | RRIRKRPPRLPRPRPRPSYYPRP | -0.983
107 | RRIRFRPPRLPRPRPRPTNQPRP | -0.259
108 | RRIRRRPPRLPRPRPRPDKIPRP | 0.402
109 | RRIRPRPPRLPRPRPRPEWHPRP | 1.23
110 | RRIRVRPPRLPRPRPRPIAIPRP | -0.0841
111 | RRIRFRPPRLPRPRPRPNIKPRP | -0.504
112 | RRIRSRPPRLPRPRPRPHWKPRP | 0.0398
113 | RRIRCRPPRLPRPRPRPGSMPRP | -0.24
114 | RRIRWRPPRLPRPRPRPKKRPRP | 0.426
115 | RRIRDRPPRLPRPRPRPLSHPRP | -0.0109
116 | RRIRPRPPRLPRPRPRPGWPPRP | 0.667
117 | RRIRPRPPRLPRPRPRPIGTPRP | -0.39
118 | RRIRKRPPRLPRPRPRPTMFPRP | 0.165
119 | RRIRHRPPRLPRPRPRPFMWPRP | -0.137
120 | RRIRIRPPRLPRPRPRPVMDPRP | -0.184
121 | RRIRNRPPRLPRPRPRPRPWPRP | 0.116
122 | RRIRQRPPRLPRPRPRPGCTPRP | -0.269
123 | RRIRDRPPRLPRPRPRPNTIPRP | -0.456
124 | RRIRSRPPRLPRPRPRPQPLPRP | 0.256
125 | RRIRMRPPRLPRPRPRPIQAPRP | 0.295

Row | Sequence | shrunken log2 fold change
126 | RRIRGRPPRLPRPRPRPDEPPRP | 1.37
127 | RRIRWRPPRLPRPRPRPLGMPRP | -0.156
128 | RRIRCRPPRLPRPRPRPDLHPRP | -0.252
129 | RRIRMRPPRLPRPRPRPAIIPRP | 0.0113
130 | RRIRNRPPRLPRPRPRPRRHPRP | 0.0212
131 | RRIRWRPPRLPRPRPRPCTRPRP | -0.161
132 | RRIRGRPPRLPRPRPRPMKDPRP | 0.55
133 | RRIRRRPPRLPRPRPRPTSTPRP | 0.158
134 | RRIRLRPPRLPRPRPRPKWKPRP | 0.0281
135 | RRIRYRPPRLPRPRPRPDYQPRP | 0.0202
136 | RRIRARPPRLPRPRPRPHPMPRP | -0.026
137 | RRIRIRPPRLPRPRPRPTIGPRP | -0.396
138 | RRIRQRPPRLPRPRPRPHCMPRP | -0.0175
139 | RRIRYRPPRLPRPRPRPNEYPRP | -0.519
140 | RRIRMRPPRLPRPRPRPWNWPRP | 0.342
141 | RRIRIRPPRLPRPRPRPNGIPRP | -0.337
142 | RRIRFRPPRLPRPRPRPFNIPRP | -0.429
143 | RRIRHRPPRLPRPRPRPDLFPRP | -0.00544
144 | RRIRSRPPRLPRPRPRPNCKPRP | -0.228
145 | RRIRTRPPRLPRPRPRPIFPPRP | 0.166
146 | RRIRWRPPRLPRPRPRPVFHPRP | 0.379
147 | RRIRIRPPRLPRPRPRPDPWPRP | 0.0621
148 | RRIRERPPRLPRPRPRPCAPPRP | -0.215
149 | RRIRGRPPRLPRPRPRPPNFPRP | 0.0696
150 | RRIRWRPPRLPRPRPRPPLSPRP | 0.271

— the supplement of paper PMC9112550, “Optimization of the antimicrobial peptide Bac7 by deep mutational scanning” (BMC Biology, 2022)
